Where no end group is shown, it is not given here.

From patent US20260242478A1 (published 2026) come the findings set out here.

The target in assay [1] is T1, PSMA Fab (biotinylated (site not stated)).
T1 construct: Biotinylated PSMA Fab captured on neutravidin coated plates in the phage ELISA; also called Anti-PSMA Fab; 006 PSMA Fab
In words: clonal phage ELISA on captured PSMA Fab, wells pre-incubated with PSMA antigen as competitor; anti-M13 HRP detection.

The target in assay [2] is T1, PSMA Fab. In words: clonal phage ELISA on biotinylated PSMA Fab captured on neutravidin plates, blocking buffer alone; anti-M13 HRP detection.
Protocol: (§1) Clonal phage were harvested as crude supernatants and screened via standard ELISAs. […] Prior to the addition of clonal phage. wells were incubated with blocking buffer and PSMA antigen or blocking buffer alone. Without washing or aspirating, clonal phage supernatants were then added to the wells and incubated for a short time. Wells were then washed followed by detection of bound phage using a horse radish conjugated anti-M13 antibody.
The target in assay [3] is T2, PSMA Fab.
T2 construct: In the panning ELISA the PSMA Fab was biotinylated and captured on neutravidin coated plates; also called Anti-PSMA Fab; 006 PSMA Fab
The experiment in a line: clonal phage ELISA on biotinylated PSMA Fab captured on neutravidin, anti-M13 HRP detection, wells pre-incubated with saturating PSMA antigen as competitor.
Protocol: as §1

Assay [4] deals with T2, PSMA Fab. The experiment in a line: clonal phage ELISA on biotinylated PSMA Fab captured on neutravidin, anti-M13 HRP detection, blocking buffer alone.
Protocol: as §1

B1: Phage-3334 (peptide)
peptide: IDRMCKPVWMCEGF
Regarding B1, the figures for the “phage binding ELISA signal” value in assay [1] and in assay [2] were 0.123 and 1.84, respectively.

B2: Phage-3319 (peptide)
peptide: LQVMCVPRWMCEGF
For B2, the “Phage binding ELISA signal, Anti-PSMA Fab with PSMA antigen” value in assay [3] is 0.104. Also, in assay [4], the “Phage binding ELISA signal, Anti-PSMA Fab” value is 1.86.

B3: Phage-3332 (peptide)
peptide: PELWCVPSWMCEGF
As to B3, the “phage binding ELISA signal” value in assay [1] was 0.0867; in assay [2] it was 1.84.

B4: Phage-3330 (peptide)
peptide: MEAMCRPAWMCAGF
modifications: cysteine pairing not given here; also: fused to pIII of bacteriophage
On to B4, for which the figures for the “phage binding ELISA signal” value in assay [1] and in assay [2] were 0.0662 and 1.84, respectively.

B5: Phage-3328 (peptide)
peptide: VAPICRPSWMCEWL
Turning to B5, the “phage binding ELISA signal” value in assay [1] came to 0.0837; in assay [2] it was 1.84.

B6: Phage-3316 (peptide)
peptide: QEFRCVPEWMCIGL
Consider B6, for which, in assay [3], the “Phage binding ELISA signal, Anti-PSMA Fab with PSMA antigen” value worked out at 0.0577. The “Phage binding ELISA signal, Anti-PSMA Fab” value in assay [4] was found to be 1.86.

B7: Phage-3325 (peptide)
peptide: MYIHCVPEWMCRGF
B7: the “phage binding ELISA signal” value in assay [1] amounted to 0.0941; in assay [2], 1.85.

B8: Phage-3323 (peptide)
peptide: AGSMCTPMWMCTGF
Regarding B8, the results for the “phage binding ELISA signal” value in assay [1] and in assay [2] were 0.0744 and 1.85, respectively.

B9: Phage-3333 (peptide)
peptide: IEFLCKPMWMCNGF
On to B9, for which the “phage binding ELISA signal” value in assay [1] was found to be 0.0658; in assay [2], 1.84.

B10: Phage-3329 (peptide)
peptide: VDRLCSPAWMCLGF
For B10, the “phage binding ELISA signal” value was 0.0785 in assay [1] and 1.84 in assay [2].

B11: Phage-3321 (peptide)
peptide: WVIKCVPSWMCAGL
As for B11, the “Phage binding ELISA signal, Anti-PSMA Fab with PSMA antigen” value in assay [3] stood at 0.0907. The “Phage binding ELISA signal, Anti-PSMA Fab” value in assay [4] came to 1.85.

B12: Phage-3322 (peptide)
peptide: IMPKCVPSWMCTGL
Turning to B12, the “phage binding ELISA signal” value was 0.153 in assay [1] and 1.85 in assay [2].

B13: Phage-3318 (peptide)
peptide: LPIMCKPQWMCNGF
Consider B13, for which, in assay [3], the “Phage binding ELISA signal, Anti-PSMA Fab with PSMA antigen” value is 0.08. Further, the “Phage binding ELISA signal, Anti-PSMA Fab” value in assay [4] turned out to be 1.86.

B14: Phage-3326 (peptide)
peptide: QVVMCTPEWMCSGF
Consider B14, for which the “phage binding ELISA signal” value in assay [1] is 0.0905; in assay [2] it was 1.85.

B15: Phage-3324 (peptide)
peptide: VGPRCVPEWMCIGL
With B15, the “phage binding ELISA signal” value came to 0.0954 in assay [1] and 1.85 in assay [2].

B16: Phage-3317 (peptide)
peptide: SSVMCIPQWMCSGF
Turning to B16, the “Phage binding ELISA signal, Anti-PSMA Fab with PSMA antigen” value in assay [3] is 0.0899. The “Phage binding ELISA signal, Anti-PSMA Fab” value in assay [4] came out at 1.86.

B17: Phage-3331 (peptide)
peptide: VNELCIPSWMCNGF
On to B17, for which the “phage binding ELISA signal” value turned out to be 0.0845 in assay [1] and 1.84 in assay [2].

B18: Phage-3320 (peptide)
peptide: VGHVCIPSWMCDGM
With B18, the “Phage binding ELISA signal, Anti-PSMA Fab with PSMA antigen” value in assay [3] amounted to 0.0683. Also, the “Phage binding ELISA signal, Anti-PSMA Fab” value in assay [4] was 1.86.

B19: Phage-3327 (peptide)
peptide: IGVVCKPLWMCHGF
For B19, the “phage binding ELISA signal” value in assay [1] turned out to be 0.0971; in assay [2], 1.85.
